# Assay results reported in the supplement of paper PMC10567573.
# B1: VAMP4 (parent)
# chain: IMALVAAILLLVIIILIVMKYRT
# Variants of: B1
# Assay: protein stability index of a GFP-peptide fusion (GPS, HEK-293T) (PSI 1-6); higher = more stable
# Settings: c terminus: native
# 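Also: lentivirally expressed fusions sorted by FACS into six bins by GFP to DsRed ratio, PSI derived from sequencing read proportions per bin multiplied by bin number.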
row,Variant,protein stability index
1,IMQLVAAILLLVIIILIVMKYRT [A3Q],3.28
2,IMNLVAAILLLVIIILIVMKYRT [A3N],2.46
3,IMELVAAILLLVIIILIVMKYRT [A3E],2.2
4,IMSLVAAILLLVIIILIVMKYRT [A3S],2.86
5,IMVLVAAILLLVIIILIVMKYRT [A3V],3.59
6,IMHLVAAILLLVIIILIVMKYRT [A3H],2.85
7,IMLLVAAILLLVIIILIVMKYRT [A3L],3.65
8,IMFLVAAILLLVIIILIVMKYRT [A3F],3.55
9,IMDLVAAILLLVIIILIVMKYRT [A3D],1.33
10,IMRLVAAILLLVIIILIVMKYRT [A3R],3.58
11,IMWLVAAILLLVIIILIVMKYRT [A3W],3.47
12,IMMLVAAILLLVIIILIVMKYRT [A3M],3.72
13,IMGLVAAILLLVIIILIVMKYRT [A3G],3.17
14,IMTLVAAILLLVIIILIVMKYRT [A3T],3.17
15,IMILVAAILLLVIIILIVMKYRT [A3I],3.5
16,IMCLVAAILLLVIIILIVMKYRT [A3C],3.34
17,IMPLVAAILLLVIIILIVMKYRT [A3P],2.9
18,IMKLVAAILLLVIIILIVMKYRT [A3K],3.28
19,IMYLVAAILLLVIIILIVMKYRT [A3Y],3.55
20,IMALQAAILLLVIIILIVMKYRT [V5Q],1.83
21,IMALGAAILLLVIIILIVMKYRT [V5G],3.37
22,IMALWAAILLLVIIILIVMKYRT [V5W],3.4
23,IMALPAAILLLVIIILIVMKYRT [V5P],2.36
24,IMALLAAILLLVIIILIVMKYRT [V5L],3.23

row,Variant,protein stability index
1,IMALCAAILLLVIIILIVMKYRT [V5C],3.37
2,IMALYAAILLLVIIILIVMKYRT [V5Y],3.72
3,IMALKAAILLLVIIILIVMKYRT [V5K],2.1
4,IMALIAAILLLVIIILIVMKYRT [V5I],2.97
5,IMALDAAILLLVIIILIVMKYRT [V5D],2.77
6,IMALEAAILLLVIIILIVMKYRT [V5E],2.42
7,IMALMAAILLLVIIILIVMKYRT [V5M],3.81
8,IMALHAAILLLVIIILIVMKYRT [V5H],2.13
9,IMALTAAILLLVIIILIVMKYRT [V5T],3.31
10,IMALAAAILLLVIIILIVMKYRT [V5A],3.36
11,IMALNAAILLLVIIILIVMKYRT [V5N],1.84
12,IMALFAAILLLVIIILIVMKYRT [V5F],3.17
13,IMALSAAILLLVIIILIVMKYRT [V5S],2.96
14,IMALRAAILLLVIIILIVMKYRT [V5R],2.73
15,IMALVCAILLLVIIILIVMKYRT [A6C],3.2
16,TMALVAAILLLVIIILIVMKYRT [I1T],3.53
17,MMALVAAILLLVIIILIVMKYRT [I1M],3.56
18,PMALVAAILLLVIIILIVMKYRT [I1P],3.56
19,RMALVAAILLLVIIILIVMKYRT [I1R],3.06
20,WMALVAAILLLVIIILIVMKYRT [I1W],3.51
21,AMALVAAILLLVIIILIVMKYRT [I1A],3.25
22,FMALVAAILLLVIIILIVMKYRT [I1F],3.39
23,HMALVAAILLLVIIILIVMKYRT [I1H],3.39
24,YMALVAAILLLVIIILIVMKYRT [I1Y],3.52

row,Variant,protein stability index
1,NMALVAAILLLVIIILIVMKYRT [I1N],2.69
2,KMALVAAILLLVIIILIVMKYRT [I1K],3.29
3,VMALVAAILLLVIIILIVMKYRT [I1V],3.38
4,SMALVAAILLLVIIILIVMKYRT [I1S],3.02
5,QMALVAAILLLVIIILIVMKYRT [I1Q],3.45
6,CMALVAAILLLVIIILIVMKYRT [I1C],3.16
7,DMALVAAILLLVIIILIVMKYRT [I1D],2.5
8,EMALVAAILLLVIIILIVMKYRT [I1E],2.77
9,LMALVAAILLLVIIILIVMKYRT [I1L],3.49
10,GMALVAAILLLVIIILIVMKYRT [I1G],3.11
11,IMAAVAAILLLVIIILIVMKYRT [L4A],3.08
12,IMACVAAILLLVIIILIVMKYRT [L4C],3.07
13,IMAEVAAILLLVIIILIVMKYRT [L4E],1.57
14,IMAIVAAILLLVIIILIVMKYRT [L4I],3.33
15,IMAWVAAILLLVIIILIVMKYRT [L4W],3.59
16,IMAGVAAILLLVIIILIVMKYRT [L4G],3.32
17,IMASVAAILLLVIIILIVMKYRT [L4S],3.29
18,IMAKVAAILLLVIIILIVMKYRT [L4K],2.78
19,IMAVVAAILLLVIIILIVMKYRT [L4V],3.14
20,IMAFVAAILLLVIIILIVMKYRT [L4F],3.69
21,IMANVAAILLLVIIILIVMKYRT [L4N],1.79
22,IMAYVAAILLLVIIILIVMKYRT [L4Y],2.76
23,IMADVAAILLLVIIILIVMKYRT [L4D],2.9
24,IMARVAAILLLVIIILIVMKYRT [L4R],3.42

row,Variant,protein stability index
1,IMAQVAAILLLVIIILIVMKYRT [L4Q],2.19
2,IMAHVAAILLLVIIILIVMKYRT [L4H],2.36
3,IMATVAAILLLVIIILIVMKYRT [L4T],3.19
4,IMAMVAAILLLVIIILIVMKYRT [L4M],3.29
5,IMAPVAAILLLVIIILIVMKYRT [L4P],2.83
6,IKALVAAILLLVIIILIVMKYRT [M2K],2.98
7,IQALVAAILLLVIIILIVMKYRT [M2Q],2.96
8,IFALVAAILLLVIIILIVMKYRT [M2F],3.53
9,IDALVAAILLLVIIILIVMKYRT [M2D],2.98
10,ILALVAAILLLVIIILIVMKYRT [M2L],3.03
11,IYALVAAILLLVIIILIVMKYRT [M2Y],3.22
12,IPALVAAILLLVIIILIVMKYRT [M2P],3.28
13,IGALVAAILLLVIIILIVMKYRT [M2G],2.98
14,INALVAAILLLVIIILIVMKYRT [M2N],1.93
15,IEALVAAILLLVIIILIVMKYRT [M2E],2.4
16,IWALVAAILLLVIIILIVMKYRT [M2W],3.66
17,IRALVAAILLLVIIILIVMKYRT [M2R],3.53
18,ITALVAAILLLVIIILIVMKYRT [M2T],2.81
19,IIALVAAILLLVIIILIVMKYRT [M2I],3.15
20,IHALVAAILLLVIIILIVMKYRT [M2H],2.4
21,IVALVAAILLLVIIILIVMKYRT [M2V],2.72
22,ICALVAAILLLVIIILIVMKYRT [M2C],3.25
23,ISALVAAILLLVIIILIVMKYRT [M2S],3.18
24,IAALVAAILLLVIIILIVMKYRT [M2A],2.73
